In paper PMC3034312:

B1: SSCG_02150; (−)-δ-cadinene synthase (Streptomyces clavuligerus) (protein)
chain: MSTRPVEGSAIWDVLSPHSPHAAAADGKTLVWVEAGELCGHDTAESANLARIRPGLLAAFCHPKATEDDLTLITKWMAWLFLLDDRIDESDLGRDADLLDGHLQDLQGVALGIRTASGPMSRALEEIITQASAGMGDAWQLRFRRNISDYLLACVWQAAHRQAGEFPDPEVFPHWRRAFGAIMPSFDLIERTDGGALPSCVYYSRPYQSLLTAAADLVCWTNDLMTVDKEAAHGDLHNLVLVTEHDRHQDRRTASAAVSAACEQRMRAHTSARRDLTGLTAALGLPDTVRTHADDCAASLLVWVRGHLEWGLETPRYRPGTTGTGTD
B2: SSCG_03688; (+)-T-muurolol synthase (Streptomyces clavuligerus) (protein)
chain: MSLNHSDLMFYCPVDDLPHPAASGVNDRTLDWASGQGIPTADRDAGRLRAMAPGLLAARIAPDARGPVLDAFADHHTWLFAFDDEYCDRADGSGITEWASFLARLHRVVETGESALLPGNPYGLALRDIACRLSTYTTPAQLAEWLEALRSYFAALVWERSRRRDDDRLQSLDDYLLLRLRNGAMHTSITLLDTVNGYVLPRELRETPGVRALVEMTALLVSVDNDILSHHKESTSGTREANLLDVLGRTGHTTPGEAVAQAVALRNEIMRQFVRVAERVRTPAAVPELYRFTTGLARWIRANLDFSLTTTRYTGPVTERAALSPHEVPPLSGQGPAPARSDVIGWWWRIPEPLPEPGSDGADTPVRKRRAGDRPPTAGRGGAPHHQRTGPPPPVLPGGITASRSSGLQQSTWRREHR

Substrate: CC(C)=CCC/C(C)=C/CC/C(C)=C/CO[P@@](=O)(O)OP(=O)(O)O
Assay: steady-state kinetics, 30-min radiolabel incubations
Assay type: biochemical, Streptomyces clavuligerus
Settings: labelled compound ([1-3H]-FPP, 0.25 to 7.5 μM)

Protein	Km [µM]	kcat
B1	1.4 ± 0.1	1.14 ± 0.03 × 10^−3 s^−1
B2	2.7 ± 0.3	1.63 ± 0.09 × 10^−3 s^−1
